21 molecules from patent publication US20060241051A1 (Takeda / Millennium, published 2006) can be followed below.

In assay [1] the target is human OT7T175 (metastin receptor) (human) (UniProt Q969F8). In words: FMAT competition with Cy-5-labeled metastin (40-54), hOT7T175-expressed CHO cells.
In assay [2] the target is T1, human OT7T175 (metastin receptor) (human, UniProt Q969F8 1-398).
T1 construct: expressed on CHO cells (hOT7T175-expressed CHO cells; hOT7T175/CHO); also called hOT7T175; h0T7T175
T1 sequence (Q969F8 whole entry L364H): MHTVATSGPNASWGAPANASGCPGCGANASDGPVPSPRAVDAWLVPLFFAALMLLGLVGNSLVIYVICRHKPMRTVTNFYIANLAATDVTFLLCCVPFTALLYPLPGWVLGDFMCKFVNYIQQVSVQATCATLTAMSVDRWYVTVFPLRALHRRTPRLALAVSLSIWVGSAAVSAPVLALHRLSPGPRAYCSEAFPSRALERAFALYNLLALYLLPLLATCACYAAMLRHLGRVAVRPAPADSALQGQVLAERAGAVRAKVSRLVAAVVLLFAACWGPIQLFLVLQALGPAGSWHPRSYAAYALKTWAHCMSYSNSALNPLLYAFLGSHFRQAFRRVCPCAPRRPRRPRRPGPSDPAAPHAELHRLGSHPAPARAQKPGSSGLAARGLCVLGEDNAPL
The description is as above.

In assay [3] the target is T1, human OT7T175 (metastin receptor). In words: cell-based or functional assay.
For assay [4] the target is unchanged. In words: cell-based or functional assay. This is another data set of the same source.
Assay [5] shares this target. In words: cell-based or functional assay. The source holds these as a separate data set.
Assay [6] shares this target. In words: cell-based or functional assay. The source holds these as a separate data set.

Read-outs that look alike come from different tables or passages of the source. Square brackets hold non-standard residues; d marks the D form. Ends that are not written are not given here. * marks the point of attachment. Phe(3,4-Cl2) = N[C@@H](Cc1ccc(Cl)c(Cl)c1)C(=O)O; Propanoyl(3-(3-pyridyl)) = O=C(CCc1cccnc1)*; Phe(4-NH2) = Nc1ccc(C[C@H](N)C(=O)O)cc1; Arg(Me) = CNC(=N)NCCC[C@H](N)C(=O)O; Bta = N[C@@H](Cc1csc2ccccc12)C(=O)O; 4Pal = N[C@@H](Cc1ccncc1)C(=O)O; d4Pal = N[C@H](Cc1ccncc1)C(=O)O; Cha = N[C@@H](CC1CCCCC1)C(=O)O; Abu = CC[C@H](N)C(=O)O; azaGly = NNC(=O)O

Chain of human OT7T175 (metastin receptor) (human) (Q969F8 whole entry L364H): as above

As usually defined, the IC50 is the concentration needed to halve the response being measured. Low values mean higher potency, high ones lower potency. Consider “Compound No. 238: [D-Tyr1,D-Asn2,D-Trp3,AzaGly7,Arg(Me)9]MS10 (peptide)”, for which the IC50 in assay [1] came out at 49 nM.

Consider YNWNSXGLRF (Nal(1)6; C-terminal amide) [Compound No. 151: [Nal(1)6]MS10], for which the IC50 in assay [2] was 300 nM. Also, the “intracellular Ca ion level-increasing activity (FLIPR)” value in assay [3] is 1 specific activity to metastin (1-54).

B1: Compound No. 171: [D-Tyr1,Cha3,Arg(Me)9]MS10 (peptide)
peptide: [dY]N[Cha]NSFGL[Arg(Me)]F-NH2
modifications: N-terminus assumed
SMILES: CNC(=N)NCCC[C@H](NC(=O)[C@H](CC(C)C)NC(=O)CNC(=O)[C@H](Cc1ccccc1)NC(=O)[C@H](CO)NC(=O)[C@H](CC(N)=O)NC(=O)[C@H](CC1CCCCC1)NC(=O)[C@H](CC(N)=O)NC(=O)[C@H](N)Cc1ccc(O)cc1)C(=O)N[C@@H](Cc1ccccc1)C(N)=O
Turning to B1, in assay [2], the IC50 was 110 nM. Also, the “intracellular Ca ion level-increasing activity (FLIPR)” value in assay [3] is 10 specific activity to metastin (1-54).

YNWNSFGLR[Phe(3,4-Cl2)]-NH2 [Compound No. 199: [Phe(3,4Cl2)10]MS10] gave an IC50 in assay [2] of 470 nM. Moreover, the “intracellular Ca ion level-increasing activity (FLIPR)” value in assay [3] was 3 specific activity to metastin (1-54).

Consider [dY]NWNSFGL[Arg(Me)]F-NH2 [Compound No. 141: [D-Tyr1,Arg(Me)9]MS10], for which the “cell growth inhibition activity, IC50” value in assay [4] worked out at 87 nM.

For YN[dW]NSFGL[Arg(Me)]F-NH2 [Compound No. 143: [D-Trp3,Arg(Me)9]MS10], the IC50 in assay [2] turned out to be 7.7 nM. Moreover, in assay [3], the “intracellular Ca ion level-increasing activity (FLIPR)” value is 3 specific activity to metastin (1-54).

Take [dY][dN][4Pal]NSF[azaGly]L[Arg(Me)]F-NH2 [Compound No. 303: [D-Tyr1,D-Asn2,Pya(4) 3,AzaGly7,Arg(Me)9]MS10]: the “intracellular Ca ion level-increasing activity (FLIPR)” value in assay [5] is 5 specific activity to metastin (1-54). In assay [2], the IC50 is 0.5 nM. For the same molecule, the “cell growth inhibition activity, IC50” value in assay [4] turned out to be 41.2 nM.

B2: Compound No. 190: [D-Tyr1,Cha3,AzaGly7,Arg(Me)9]MS10 (peptide)
peptide: [dY]N[Cha]NSF[azaGly]L[Arg(Me)]F-NH2
modifications: N-terminus assumed
SMILES: CNC(=N)NCCC[C@H](NC(=O)[C@H](CC(C)C)NC(=O)NNC(=O)[C@H](Cc1ccccc1)NC(=O)[C@H](CO)NC(=O)[C@H](CC(N)=O)NC(=O)[C@H](CC1CCCCC1)NC(=O)[C@H](CC(N)=O)NC(=O)[C@H](N)Cc1ccc(O)cc1)C(=O)N[C@@H](Cc1ccccc1)C(N)=O
As for B2, the IC50 in assay [2] stood at 12 nM. Also, the “intracellular Ca ion level-increasing activity (FLIPR)” value in assay [3] was 10 specific activity to metastin (1-54).

B3: Compound No. 169: [D-Tyr1,Ala3,Arg(Me)9]MS10 (peptide)
peptide: [dY]NANSFGL[Arg(Me)]F-NH2
modifications: N-terminus assumed
SMILES: CNC(=N)NCCC[C@H](NC(=O)[C@H](CC(C)C)NC(=O)CNC(=O)[C@H](Cc1ccccc1)NC(=O)[C@H](CO)NC(=O)[C@H](CC(N)=O)NC(=O)[C@H](C)NC(=O)[C@H](CC(N)=O)NC(=O)[C@H](N)Cc1ccc(O)cc1)C(=O)N[C@@H](Cc1ccccc1)C(N)=O
The molecule B3 had an IC50 in assay [2] of 160 nM. The “intracellular Ca ion level-increasing activity (FLIPR)” value in assay [3] was 2 specific activity to metastin (1-54).

B4: Compound No. 174: [D-Tyr1,Arg(Me)9,Trp10]MS10 (peptide)
peptide: [dY]NWNSFGL[Arg(Me)]W-NH2
modifications: N-terminus assumed
SMILES: CNC(=N)NCCC[C@H](NC(=O)[C@H](CC(C)C)NC(=O)CNC(=O)[C@H](Cc1ccccc1)NC(=O)[C@H](CO)NC(=O)[C@H](CC(N)=O)NC(=O)[C@H](Cc1c[nH]c2ccccc12)NC(=O)[C@H](CC(N)=O)NC(=O)[C@H](N)Cc1ccc(O)cc1)C(=O)N[C@@H](Cc1c[nH]c2ccccc12)C(N)=O
In assay [2], B4 registered an IC50 of 420 nM. Besides, in assay [3], the “intracellular Ca ion level-increasing activity (FLIPR)” value was 10 specific activity to metastin (1-54).

B5: Compound No. 170: [D-Tyr1,Ser3,Arg(Me)9]MS10 (peptide)
peptide: [dY]NSNSFGL[Arg(Me)]F-NH2
modifications: N-terminus assumed
SMILES: CNC(=N)NCCC[C@H](NC(=O)[C@H](CC(C)C)NC(=O)CNC(=O)[C@H](Cc1ccccc1)NC(=O)[C@H](CO)NC(=O)[C@H](CC(N)=O)NC(=O)[C@H](CO)NC(=O)[C@H](CC(N)=O)NC(=O)[C@H](N)Cc1ccc(O)cc1)C(=O)N[C@@H](Cc1ccccc1)C(N)=O
The molecule B5 gave an IC50 in assay [2] of 260 nM. In assay [3], the “intracellular Ca ion level-increasing activity (FLIPR)” value was 1 specific activity to metastin (1-54).

B6: Compound No. 182: [D-Tyr1,Cha3,6,Arg(Me)9,Trp10]MS10 (peptide)
peptide: [dY]N[Cha]NS[Cha]GL[Arg(Me)]W-NH2
modifications: N-terminus assumed
SMILES: CNC(=N)NCCC[C@H](NC(=O)[C@H](CC(C)C)NC(=O)CNC(=O)[C@H](CC1CCCCC1)NC(=O)[C@H](CO)NC(=O)[C@H](CC(N)=O)NC(=O)[C@H](CC1CCCCC1)NC(=O)[C@H](CC(N)=O)NC(=O)[C@H](N)Cc1ccc(O)cc1)C(=O)N[C@@H](Cc1c[nH]c2ccccc12)C(N)=O
Molecule B6 registered an IC50 in assay [2] of 98 nM. Further, the “intracellular Ca ion level-increasing activity (FLIPR)” value in assay [3] is 5 specific activity to metastin (1-54).

B7: Compound No. 305: des(1)-[D-Tyr2,D-Pya(4) 3,AzaGly7,Arg(Me)9]MS10 (peptide)
peptide: [dY][d4Pal]NSF[azaGly]L[Arg(Me)]F-NH2
modifications: N-terminus assumed
SMILES: CNC(=N)NCCC[C@H](NC(=O)[C@H](CC(C)C)NC(=O)NNC(=O)[C@H](Cc1ccccc1)NC(=O)[C@H](CO)NC(=O)[C@H](CC(N)=O)NC(=O)[C@@H](Cc1ccncc1)NC(=O)[C@H](N)Cc1ccc(O)cc1)C(=O)N[C@@H](Cc1ccccc1)C(N)=O
notes: also called KiSS305; KiSS1-305
Turning to B7, the “intracellular Ca ion level-increasing activity (FLIPR)” value in assay [5] is 5 specific activity to metastin (1-54). In assay [2], the IC50 worked out at 1.3 nM. For the same molecule, in assay [4], the “cell growth inhibition activity, IC50” value is 8.94 nM.

For the molecule YNWNSFGLR[Phe(4-NH2)]-NH2 [Compound No. 131: [Phe(4NH2)10]MS10], the IC50 in assay [2] amounted to 120 nM. Also, in assay [3], the “intracellular Ca ion level-increasing activity (FLIPR)” value is 3 specific activity to metastin (1-54).

B8: Compound No. 189: [Ala(3-Bzt)10]MS10 (peptide)
peptide: YNWNSFGLR[Bta]-NH2
modifications: N-terminus assumed
SMILES: CC(C)C[C@H](NC(=O)CNC(=O)[C@H](Cc1ccccc1)NC(=O)[C@H](CO)NC(=O)[C@H](CC(N)=O)NC(=O)[C@H](Cc1c[nH]c2ccccc12)NC(=O)[C@H](CC(N)=O)NC(=O)[C@@H](N)Cc1ccc(O)cc1)C(=O)N[C@@H](CCCNC(=N)N)C(=O)N[C@@H](Cc1csc2ccccc12)C(N)=O
Regarding B8, in assay [2], the IC50 stood at 230 nM. Also, the “intracellular Ca ion level-increasing activity (FLIPR)” value in assay [3] is 10 specific activity to metastin (1-54).

Consider [dY]N[4Pal]NSF[azaGly]L[Arg(Me)]F-NH2 [Compound No. 286: [D-Tyr1,Pya(4) 3,AzaGly7,Arg(Me)9]MS10], for which the IC50 in assay [2] came out at 17 nM. For the same molecule, the “cell growth inhibition activity, IC50” value in assay [4] was determined as 18.3 nM. Also, the “intracellular Ca ion level-increasing activity (FLIPR)” value in assay [6] was 2 specific activity to metastin (1-54).

B9: Compound No. 187: [Abu8]MS10 (peptide)
peptide: YNWNSFG[Abu]RF-NH2
modifications: N-terminus assumed
SMILES: CC[C@H](NC(=O)CNC(=O)[C@H](Cc1ccccc1)NC(=O)[C@H](CO)NC(=O)[C@H](CC(N)=O)NC(=O)[C@H](Cc1c[nH]c2ccccc12)NC(=O)[C@H](CC(N)=O)NC(=O)[C@@H](N)Cc1ccc(O)cc1)C(=O)N[C@@H](CCCNC(=N)N)C(=O)N[C@@H](Cc1ccccc1)C(N)=O
On to B9, for which the IC50 in assay [2] amounted to 720 nM. For the same molecule, in assay [3], the “intracellular Ca ion level-increasing activity (FLIPR)” value is 1 specific activity to metastin (1-54).

Consider YNWNSXGLRF (Nal(2)6; C-terminal amide) [Compound No. 152: [Nal(2)6]MS10], for which the IC50 in assay [2] came to 180 nM. For the same molecule, the “intracellular Ca ion level-increasing activity (FLIPR)” value in assay [3] is 5 specific activity to metastin (1-54).

The molecule YNWNSXGLRF (Cha6; C-terminal amide) [Compound No. 156: [Cha6]MS10] yielded an IC50 in assay [2] of 49 nM. Besides, the “intracellular Ca ion level-increasing activity (FLIPR)” value in assay [3] was 2 specific activity to metastin (1-54).

The molecule YNWNSFGLRX (Nal(1)10; C-terminal amide) [Compound No. 133: [Nal(1)10]MS10] had an IC50 in assay [2] of 330 nM. Moreover, the “intracellular Ca ion level-increasing activity (FLIPR)” value in assay [3] was 3 specific activity to metastin (1-54).

B10: Compound No. 322: des(1-3)-3-Pyridylpropionyl-[AzaGly7,Arg(Me)9]MS10 (peptide)
peptide: {Propanoyl(3-(3-pyridyl))}-NSF[azaGly]L[Arg(Me)]F-NH2
SMILES: CNC(=N)NCCC[C@H](NC(=O)[C@H](CC(C)C)NC(=O)NNC(=O)[C@H](Cc1ccccc1)NC(=O)[C@H](CO)NC(=O)[C@H](CC(N)=O)NC(=O)CCc1cccnc1)C(=O)N[C@@H](Cc1ccccc1)C(N)=O
notes: also called KiSS322; KiSS1-322
As for B10, in assay [5], the “intracellular Ca ion level-increasing activity (FLIPR)” value was 1 specific activity to metastin (1-54). The IC50 in assay [2] was determined as 54 nM. The “cell growth inhibition activity, IC50” value in assay [4] was found to be 71.9 nM.
